T1: Upf1-HD-His6 (S. cerevisiae Upf1 helicase domain, residues 221 to 851) (S. cerevisiae, UniProt P30771 221-851)
T1 construct: Upf1, S. cerevisiae, helicase domain, residues 221 to 851; Used in ITC and, by the buffer D200 preparation, in the ATPase assays; also called yeast Upf1 helicase domain; source: E. coli BL21 (DE3) Gold, purified (TALON, HiTrap Heparin, S200 SEC); not shown: His6, C-terminal, kept
T1 sequence (looked up): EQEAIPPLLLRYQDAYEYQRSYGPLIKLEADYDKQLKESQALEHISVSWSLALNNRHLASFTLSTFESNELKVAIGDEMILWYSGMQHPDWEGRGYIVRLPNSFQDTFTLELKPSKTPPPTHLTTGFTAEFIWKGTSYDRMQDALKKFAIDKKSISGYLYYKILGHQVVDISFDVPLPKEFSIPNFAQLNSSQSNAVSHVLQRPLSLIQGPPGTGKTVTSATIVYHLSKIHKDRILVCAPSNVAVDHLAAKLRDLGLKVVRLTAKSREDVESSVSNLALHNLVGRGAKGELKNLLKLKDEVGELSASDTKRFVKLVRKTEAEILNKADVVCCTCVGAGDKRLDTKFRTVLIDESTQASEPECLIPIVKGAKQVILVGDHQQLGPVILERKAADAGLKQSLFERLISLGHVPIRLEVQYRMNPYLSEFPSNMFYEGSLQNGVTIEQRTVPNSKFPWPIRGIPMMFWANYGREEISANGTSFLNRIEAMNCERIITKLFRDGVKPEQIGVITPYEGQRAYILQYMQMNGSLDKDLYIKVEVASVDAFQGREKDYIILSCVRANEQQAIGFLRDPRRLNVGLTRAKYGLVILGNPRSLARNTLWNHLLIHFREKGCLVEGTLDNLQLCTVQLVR

T2: His6-ZZ-Nmd4 FL (Saccharomyces cerevisiae, UniProt Q12129 1-218)
T2 sequence: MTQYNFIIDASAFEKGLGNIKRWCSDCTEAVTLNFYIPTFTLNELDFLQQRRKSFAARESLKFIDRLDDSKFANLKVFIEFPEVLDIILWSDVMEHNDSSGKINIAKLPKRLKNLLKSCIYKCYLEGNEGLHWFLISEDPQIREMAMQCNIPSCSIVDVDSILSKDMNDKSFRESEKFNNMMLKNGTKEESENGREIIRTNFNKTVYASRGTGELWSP

T3: Upf1-HD-His6 (Saccharomyces cerevisiae, UniProt P30771 221-851)
T3 sequence: T1 sequence (looked up)

T4: His6-ZZ-Nmd4 FL;Upf1-HD-His6 (Saccharomyces cerevisiae;Saccharomyces …, UniProt Q12129;P30771 1-218;221-851, |)
T4 sequence 1: T2 sequence
T4 sequence 2: T1 sequence (looked up)

B1: His6-ZZ-Nmd4 full-length protein (S. cerevisiae) (natural protein, UniProt Q12129 1-218, looked up)
chain: T2 sequence
notes: also called His6-ZZ-Nmd4 FL; full-length Nmd4; source: E. coli BL21 (DE3) Gold, purified (Ni-NTA, HiTrap Heparin, S75 SEC); not shown: His6, N-terminal, kept; ZZ (tandem Z-domain of S. aureus protein A), N-terminal, kept
B2: His6-ZZ-Nmd4 « arm » (residues 168 to 218) (domain or fragment, S. cerevisiae, UniProt Q12129 168-218, looked up)
chain: NDKSFRESEKFNNMMLKNGTKEESENGREIIRTNFNKTVYASRGTGELWSP
notes: Nmd4, S. cerevisiae, C-terminal « arm », residues 168 to 218; also called « arm » region; source: E. coli BL21 (DE3) Gold, purified; not shown: His6, N-terminal, kept; ZZ (tandem Z-domain of S. aureus protein A), N-terminal, kept

Tests used:
[1] = target: T1, Upf1-HD-His6 (S. cerevisiae Upf1 …); experiment: ITC; His6-ZZ-Nmd4 proteins (260 μM full-length and « arm », 330 μM PIN) or His6-ZZ (277 μM) injected into Upf1-HD-His6 (30 to 35 μM); 20°C; 100 mM Bis-Tris pH 6.5, 200 mM NaCl, 5 mM MgCl2, 5 mM 2-mercaptoethanol; one-binding-site model; conditions: both partners purified
His6-ZZ-Nmd4 FL = target: T2, His6-ZZ-Nmd4 FL; experiment: ITC; 5 mM Mg2+; ITC: 100 mM Bis-Tris pH 6.5, 133 mM NaCl, 5 mM MgCl2, 5 mM 2-mercaptoethanol, 20 C; protein 20-30 uM in cell titrated with 230-280 uM RNA; conditions: protein: recombinant; tags: N-terminal His6-ZZ (3C cleavable, kept for ITC); single strand
Upf1-HD-His6 = target: T3, Upf1-HD-His6; experiment: ITC; no nucleotide; 5 mM Mg2+; ITC: 100 mM Bis-Tris pH 6.5, 133 mM NaCl, 5 mM MgCl2, 5 mM 2-mercaptoethanol, 20 C; protein 20-30 uM in cell titrated with 230-280 uM RNA; conditions: protein: recombinant; tags: C-terminal His6; single strand
[2] = target: T4, His6-ZZ-Nmd4 FL;Upf1-HD-His6; experiment: ITC; preformed Nmd4/Upf1-HD complex; no nucleotide; 5 mM Mg2+; n 0.47; ITC: 100 mM Bis-Tris pH 6.5, 133 mM NaCl, 5 mM MgCl2, 5 mM 2-mercaptoethanol, 20 C; protein 20-30 uM in cell titrated with 230-280 uM RNA; conditions: protein: recombinant;recombinant; tags: N-terminal His6-ZZ (3C cleavable, kept for ITC);C-terminal His6; copies: 1;1; single strand

| Binder | Kd [1] [µM] | dH [1] [kcal/mol] | stoichiometry N [1] | Kd (His6-ZZ-Nmd4 FL) [µM] | Kd (Upf1-HD-His6) [µM] | Kd [2] [µM] |
| --- | --- | --- | --- | --- | --- | --- |
| B1 | 2.1 | -14.8 | 1.08 | – | – | – |
| B2 | 1.96 | -12.4 | 0.98 | – | – | – |
| UUUUUUUUUUUUUUUUUUUUUUUUUUUUUU (ssRNA) [RNA poly(U)30] | – | – | – | 8.1 ± 2.95 | 1.03 ± 0.28 | 0.44 ± 0.21 |

— PMC11463774, “Structure of the Nmd4-Upf1 complex supports conservation of the nonsense-mediated mRNA decay pathway between yeast and humans” (PLOS Biology, 2024)
